Test results reported in the supplement of paper PMC10126150.
± gives the standard deviation of the averaged measurements.

Tested on: ATP
Assay: switch fluorescence ratio, 500 uM ATP over buffer (Cy3 cluster intensity, sum of 5 cycles each) (fold (ratio)); higher = stronger signal-on switching upon ATP binding; sequences stand for … in TCGTCGGCAGCGTCAGATGTGTATAAGAGACAGTTTTTTTTTTTTTTTTTTTTTTTTT…TC
Conditions: aptamer strand: ATP DNA aptamer (quencher-CACCTGGGGGAGTATTGCGGAGGAAGG + anchor), 100 nM annealed; ATP concentration: 500 uM
Summary of the method: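 Imaging in selection buffer was followed by imaging after 15 min with 500 uM ATP at 22 °C, for Cy3-labelled switching-strand clusters annealed to 100 nM quencher-labelled ATP aptamer on a modified Illumina MiSeq flow-cell. Five of these buffer/ATP cycles ran, separated by NaOH stripping and re-annealing. The fluorescence ratio per cluster is summed target-cycle over summed buffer-cycle Cy3 intensity, averaged per switch-domain sequence; clusters outside 100-1000 RFU were removed.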
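Note: ATP exposure 15 min at 22 °C before imaging.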

Row | Sequence | switch fluorescence ratio
1 | TTACCCGTCA | 1.06 ± 0.044
2 | TTACCCTATA | 1.07 ± 0.029
3 | TTACCGAGGT | 1.03 ± 0.031
4 | TTACCTGGCT | 1.1 ± 0.059
5 | TTACGAACCG | 1.23 ± 0.026
6 | TTACGACGAC | 2.21 ± 0.096
7 | TTACGATGGT | 1.003 ± 0.0032
8 | TTACGGCCCG | 1.05 ± 0.051
9 | TTACGGGTAA | 0.99 ± 0.01
10 | TTACGGTAAC | 2.05 ± 1.1
11 | TTACGGTATG | 1.09 ± 0.035
12 | TTACGGTGGA | 0.9963 ± 0.0033
13 | TTACGTCATA | 1.67 ± 0.95
14 | TTACGTGCAT | 1.01 ± 0.011
15 | TTACGTTCCT | 1.5 ± 0.13
16 | TTACGTTTGT | 1.02 ± 0.07
17 | TTACGTTTTT | 0.999 ± 0.011
18 | TTACTAAGCT | 1.03 ± 0.069
19 | TTACTAGGCC | 1.01 ± 0.034
20 | TTACTAGTTT | 0.981 ± 0.02
21 | TTACTATGGC | 0.966 ± 0.032
22 | TTACTATGTT | 0.999 ± 0.018
23 | TTACTGATCC | 1.04 ± 0.019

Row | Sequence | switch fluorescence ratio
24 | TTACTGCATT | 1.11 ± 0.014
25 | TTACTGCTTT | 1.02 ± 0.025
26 | TTACTGGTTA | 1.01 ± 0.029
27 | TTACTTACGA | 1.4167 ± 0.00061
28 | TTACTTATAA | 1.04 ± 0.018
29 | TTACTTCAGG | 1.032 ± 0.0026
30 | TTACTTGCAT | 1.065 ± 0.0059
31 | TTACTTGTGG | 0.988 ± 0.024
32 | TTACTTGTTT | 1 ± 0.023
33 | TTACTTTCCT | 1.12 ± 0.086
34 | TTACTTTGGC | 1 ± 0.022
35 | TTACTTTGTT | 1.02 ± 0.023
36 | TTAGAACATC | 1.009 ± 0.0053
37 | TTAGAAGGCA | 1.03 ± 0.036
38 | TTAGAAGGG | 0.965 ± 0.012
39 | TTAGAAGGGG | 0.993 ± 0.015
40 | TTAGAAGTCA | 1.0063 ± 0.00067
41 | TTAGAATTAA | 0.9724 ± 0.0063
42 | TTAGACATAT | 1.02 ± 0.021
43 | TTAGACGAGC | 0.986 ± 0.031
44 | TTAGAGAACC | 1.01 ± 0.016
45 | TTAGAGAGTG | 0.984 ± 0.044
46 | TTAGAGCGTT | 1.72 ± 1

Row | Sequence | switch fluorescence ratio
47 | TTAGAGGACG | 1.02 ± 0.025
48 | TTAGAGGGTG | 1.12 ± 0.018
49 | TTAGAGTTGT | 0.999 ± 0.034
50 | TTAGAGTTTA | 0.975 ± 0.014
51 | TTAGATAGGA | 0.999 ± 0.01
52 | TTAGATCAGC | 0.99 ± 0.03
53 | TTAGATGGGA | 1.005 ± 0.0047
54 | TTAGATTGGG | 0.9736 ± 0.0075
55 | TTAGCATTTA | 1.03 ± 0.013
56 | TTAGCGGTCA | 1.01 ± 0.021
57 | TTAGCGTATG | 1.01 ± 0.031
58 | TTAGCTACCT | 1.11 ± 0.19
59 | TTAGCTATCT | 1.04 ± 0.021
60 | TTAGCTATTA | 0.9858 ± 0.0043
61 | TTAGCTGTTA | 1 ± 0.016
62 | TTAGCTTGG | 0.999 ± 0.061
63 | TTAGGAAGAT | 1.36 ± 0.59
64 | TTAGGAATGT | 1.03 ± 0.047
65 | TTAGGACAGC | 1.02 ± 0.021
66 | TTAGGAGATT | 1.08 ± 0.14
67 | TTAGGAGCGG | 1.04 ± 0.047
68 | TTAGGAGGTG | 1.08 ± 0.018
69 | TTAGGATGA | 1.01 ± 0.027

Row | Sequence | switch fluorescence ratio
70 | TTAGGCAGTA | 1.01 ± 0.067
71 | TTAGGCCGAG | 1.04 ± 0.022
72 | TTAGGCGTGT | 1.03 ± 0.031
73 | TTAGGCTGGG | 1.02 ± 0.013
74 | TTAGGCTTGG | 1.06 ± 0.067
75 | TTAGGGAGCG | 0.996 ± 0.035
76 | TTAGGGAGTC | 0.992 ± 0.037
77 | TTAGGGCCGA | 1 ± 0.031
78 | TTAGGGCGGG | 1.04 ± 0.039
79 | TTAGGGCTCA | 0.996 ± 0.027
80 | TTAGGGGCAA | 1.04 ± 0.073
81 | TTAGGGGCAC | 0.993 ± 0.018
82 | TTAGGGGGTC | 0.998 ± 0.036
83 | TTAGGGGTCT | 1.03 ± 0.019
84 | TTAGGGTGAA | 1.02 ± 0.032
85 | TTAGGGTGCC | 1.02 ± 0.034
86 | TTAGGGTTTG | 0.995 ± 0.029
87 | TTAGGTAACG | 0.977 ± 0.027
88 | TTAGGTACGG | 1.035 ± 0.01
89 | TTAGGTGAGT | 1.21 ± 0.3
90 | TTAGGTGGAA | 0.976 ± 0.012
91 | TTAGGTGTTT | 1.54 ± 0.69
92 | TTAGGTTCTC | 0.991 ± 0.015

Row | Sequence | switch fluorescence ratio
93 | TTAGGTTGCT | 1.1 ± 0.14
94 | TTAGGTTGGC | 1 ± 0.069
95 | TTAGGTTGGG | 1.02 ± 0.056
96 | TTAGGTTGTA | 0.974 ± 0.025
97 | TTAGTAGAAC | 0.993 ± 0.013
98 | TTAGTATATT | 1.03 ± 0.0093
99 | TTAGTCCACT | 1.0047 ± 0.001
100 | TTAGTCCTTG | 0.9914 ± 0.0024
101 | TTAGTGAGGT | 1 ± 0.027
102 | TTAGTGGATT | 0.9958 ± 0.0073
103 | TTAGTGGGGG | 0.998 ± 0.029
104 | TTAGTGGTTG | 0.992 ± 0.014
105 | TTAGTGTCGA | 1.02 ± 0.04
106 | TTAGTGTGCT | 1 ± 0.026
107 | TTAGTGTTGT | 0.969 ± 0.028
108 | TTAGTTAAT | 1.02 ± 0.023
109 | TTAGTTAGGT | 1.004 ± 0.0046
110 | TTAGTTATTG | 1 ± 0.087
111 | TTAGTTCGGG | 0.965 ± 0.023
112 | TTAGTTGATA | 1.01 ± 0.018
113 | TTAGTTGCTT | 1.01 ± 0.03
114 | TTAGTTGGCA | 0.981 ± 0.016
115 | TTAGTTGGGT | 1.002 ± 0.008

Row | Sequence | switch fluorescence ratio
116 | TTAGTTTGTC | 0.986 ± 0.063
117 | TTAGTTTTAG | 1.008 ± 0.0056
118 | TTAGTTTTGA | 1 ± 0.031
119 | TTAGTTTTTG | 0.98 ± 0.017
120 | TTATAAAGAG | 1.01 ± 0.029
121 | TTATAACTCA | 0.997 ± 0.034
122 | TTATACCAAT | 1.013 ± 0.0022
123 | TTATACGGCG | 1.06 ± 0.0059
124 | TTATACGTTG | 1.02 ± 0.019
125 | TTATACTGAA | 1.05 ± 0.021
126 | TTATAGAGTT | 0.9649 ± 0.0032
127 | TTATAGCAGT | 1.06 ± 0.04
128 | TTATAGGGGA | 0.998 ± 0.082
129 | TTATAGGGTA | 1 ± 0.017
130 | TTATAGTATC | 0.948 ± 0.02
131 | TTATAGTTTG | 0.997 ± 0.03
132 | TTATATATAA | 1.01 ± 0.027
133 | TTATATCGGT | 0.971 ± 0.011
134 | TTATATGATT | 0.997 ± 0.036
135 | TTATATTGCG | 0.9885 ± 0.0014
136 | TTATATTTGT | 0.98 ± 0.02
137 | TTATCAGGGG | 1.08 ± 0.12
138 | TTATCATTC | 1.01 ± 0.019

Row | Sequence | switch fluorescence ratio
139 | TTATCCAGCT | 1.01 ± 0.012
140 | TTATCCCGAA | 0.991 ± 0.0085
141 | TTATCCTGGT | 0.975 ± 0.011
142 | TTATCCTTCA | 1.27 ± 0.36
143 | TTATCGAGGG | 0.989 ± 0.03
144 | TTATCGATAG | 0.985 ± 0.019
145 | TTATCGATGG | 0.987 ± 0.022
146 | TTATCGATTT | 0.995 ± 0.028
147 | TTATCGCGAC | 1.67 ± 0.82
148 | TTATCGGGAC | 1 ± 0.049
149 | TTATCGGTGT | 0.968 ± 0.038
150 | TTATCGTGCG | 0.9661 ± 0.0079
151 | TTATCGTTGG | 1 ± 0.031
152 | TTATCTACGT | 1.07 ± 0.035
153 | TTATCTCTGT | 0.999 ± 0.022
154 | TTATGAATTT | 0.98 ± 0.026
155 | TTATGATTGT | 1.02 ± 0.03
156 | TTATGATTTG | 1.02 ± 0.02
157 | TTATGCCACG | 1.04 ± 0.016
